The text below walks through data of US10947272B2, “BACE1 inhibitor peptides” (HOFFMANN-LA ROCHE INC., priority 2015, dated 2021).

This test concerns the target BACE1 (Asp2, β-secretase, Memapsin-2) in HEK293 cells stably expressing human APP695 (UniProt P56817 46-501, limits assumed). Nature of the test: cell-based or functional assay.

Where “and” joins values, the source holds several entries; their conditions need not be identical. Identical values can stand only once. Numbered stars: 1 amine (or outer) side, 2 acyl side, 3 side chain; on linkers, the order of the positions; unused ones are H or OH. Square brackets hold non-standard residues; d marks the D form. Primed or numbered codes have the meaning given here. Ends that are not written are not given here. * marks the point of attachment. PEG(4) = non-peptide PEG linker joining two peptide parts; MetSta(3S,4S) = CSCC[C@H](N[*:1])[C@@H](O)CC(=O)[*:2]; MetSta = statine analogue named MetSta in the name; Biotin = O=C1N[C@H]2[C@H](CS[C@H]2CCCCC(=O)*)N1; Sta = CC(C)C[C@H](N)[C@@H](O)CC(=O)O; PEG4 = NCCOCCOCCOCCOCCC(=O)O; PEG3 = NCCOCCOCCOCCC(=O)O; PEG8′ = not defined here; AEEA = NCCOCCOCC(=O)O

Sequence of BACE1 (Asp2, β-secretase, Memapsin-2) in HEK293 cells stably expressing human APP695 (P56817 46-501 limits assumed): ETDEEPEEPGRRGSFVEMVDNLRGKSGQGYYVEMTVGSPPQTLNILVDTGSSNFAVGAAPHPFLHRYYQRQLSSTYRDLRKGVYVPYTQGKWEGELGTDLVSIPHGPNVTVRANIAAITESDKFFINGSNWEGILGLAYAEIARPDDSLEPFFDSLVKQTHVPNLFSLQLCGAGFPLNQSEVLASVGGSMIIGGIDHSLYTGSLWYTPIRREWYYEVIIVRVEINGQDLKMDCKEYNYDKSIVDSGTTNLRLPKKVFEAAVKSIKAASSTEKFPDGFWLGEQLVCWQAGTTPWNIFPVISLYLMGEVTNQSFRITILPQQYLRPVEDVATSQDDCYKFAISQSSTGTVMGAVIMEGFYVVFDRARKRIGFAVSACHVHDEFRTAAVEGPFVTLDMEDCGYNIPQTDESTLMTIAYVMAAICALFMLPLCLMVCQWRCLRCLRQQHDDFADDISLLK

Regarding GARFIPAG[dK]GEVN[Sta]VAE[dP]-NH2 (also: TFA salt (3 TFA)) [Gly-Ala-Arg-Phe-Ile-Pro-Ala-Gly-DLys-Gly-Glu-Val-Asn-Sta-Val-Ala-Glu-DPro-NH2 × 3TFA], the “IC 50, cellular Aβ-lowering assay (Aβ40 in supernatant of HEK293 cells expressing human APP695)” value (from here on “IC 50, cellular Aβ-lowering assay”) is 420 nM. With H-YPKFIPL[PEG4]EVN[Sta]VAE[dP]-NH2 (numbers in words are those of the source; also: 3TFA salt) [1 H-Tyr-Pro-Lys-Phe-Ile-Pro-Leu-PEG(4)-Glu-Val-Asn-Sta-Val-Ala-Glu-DPro-NH2 × 3TFA], the “IC 50, cellular Aβ-lowering assay” value was 52 nM. As for H-[dY]PYFIP[dK]G[dK]GEVN[Sta]VAE[dP]-NH2 (also: TFA salt (3 TFA)) [H-DTyr-Pro-Tyr-Phe-Ile-Pro-DLys-Gly-DLys-Gly-Glu-Val-Asn-Sta-Val-Ala-Glu-DPro-NH2 × 3TFA], the “IC 50, cellular Aβ-lowering assay” value was 63 nM.

On to YPYFIPL[PEG4]EVN[Sta]VAE[dP]-NH2 (also: TFA salt) [Tyr-Pro-Tyr-Phe-Ile-Pro-Leu-PEG(4)-Glu-Val-Asn-Sta-Val-Ala-Glu-DPro-NH2 × TFA], for which the “IC 50, cellular Aβ-lowering assay” value amounted to 2.7 nM. Turning to H-YPYF[dK]PL[PEG4]EVN[Sta]VAE[dP]-NH2 (numbers in words are those of the source; also: TFA salt (2 TFA)) [H-Tyr-Pro-Tyr-Phe-DLys-Pro-Leu-PEG(4)-Glu-Val-Asn-Sta-Val-Ala-Glu-DPro-NH2 × 2TFA], the “IC 50, cellular Aβ-lowering assay” value is greater than 40000 nM.

As to YPYFI[dK]LG[dK]GEVN[Sta]VAE[dP]-NH2 (also: TFA salt (3 TFA)) [Tyr-Pro-Tyr-Phe-Ile-DLys-Leu-Gly-DLys-Gly-Glu-Val-Asn-Sta-Val-Ala-Glu-DPro-NH2 × 3TFA], the “IC 50, cellular Aβ-lowering assay” value is greater than 40000 nM. H-YP[dK]FIPLG[dK]GEVN[Sta]VAE[dP]-NH2 (also: TFA salt) [H-Tyr-Pro-DLys-Phe-Ile-Pro-Leu-Gly-DLys-Gly-Glu-Val-Asn-Sta-Val-Ala-Glu-DPro-NH2]: the “IC 50, cellular Aβ-lowering assay” value turned out to be 29300 nM.

B1: Tyr-Pro-Tyr-Phe-Ile-Pro-DLys-PEG(4)-Glu-Val-Asn-Leu*Ala-Ala-Glu-DPro-NH2 × 2TFA (peptide)
peptide: YPYFIP[dK][PEG(4)]EVNLAAE[dP]-NH2
modifications: numbers in words are those of the source; also: Leu11-Ala12 as Leu*Ala hydroxyethylene dipeptide isostere, 2TFA salt
As to B1, the “IC 50, cellular Aβ-lowering assay” value was 15 nM. H-YPYFIP[dK][PEG4]EVN[Sta]VAE[dP]-NH2 (numbers in words are those of the source; also: TFA salt (2 TFA)) [H-Tyr-Pro-Tyr-Phe-Ile-Pro-DLys-PEG(4)-Glu-Val-Asn-Sta-Val-Ala-Glu-DPro-NH2 × 2TFA]: the “IC 50, cellular Aβ-lowering assay” value is 45 nM. Next, H-GGGYPYFIP[dK]G[dK]GEVN[Sta]VAE[dP]-NH2 (also: TFA salt) [H-Gly-Gly-Gly-Tyr-Pro-Tyr-Phe-Ile-Pro-DLys-Gly-DLys-Gly-Glu-Val-Asn-Sta-Val-Ala-Glu-DPro-NH2 × 3TFA]: 6.4 nM; YPYFIPL[PEG4]EVN[MetSta(3S,4S)]VAE[dF]-NH2 (also: TFA salt) [Tyr-Pro-Tyr-Phe-Ile-Pro-Leu-PEG(4)-Glu-Val-Asn-MetSta-Val-Ala-Glu-DPhe-NH2 × TFA]: 430 nM.

B2: Tyr-Pro-Tyr-Phe-DLys-Leu-Gly-DLys-Gly-Glu-Val-Asn-Leu*Ala-Ala-Glu-DPro-NH2 × 3TFA (peptide)
peptide: YPYF[dK]LG[dK]GEVNLAAE[dP]-NH2
modifications: also: Leu13-Ala14 hydroxyethylene dipeptide isostere (Leu*Ala) in place of the amide bond, 3TFA salt
Regarding B2, the “IC 50, cellular Aβ-lowering assay” value turned out to be 34 nM. For the molecule Ac-[dY]PYFIPLG[dK]GEVN[Sta]VAE[dP]-NH2 (also: TFA salt) [Ac-DTyr-Pro-Tyr-Phe-Ile-Pro-Leu-Gly-DLys-Gly-Glu-Val-Asn-Sta-Val-Ala-Glu-DPro-NH2 × TFA], the “IC 50, cellular Aβ-lowering assay” value was 110 nM. As to YPYFIP[dK][PEG(4)]EVN[MetSta(3S,4S)]VAE[dP]-NH2 (numbers in words are those of the source; also: TFA salt (2 TFA)) [Tyr-Pro-Tyr-Phe-Ile-Pro-DLys-PEG(4)-Glu-Val-Asn-MetSta-Val-Ala-Glu-DPro-NH2 × 2TFA], the “IC 50, cellular Aβ-lowering assay” value turned out to be 1010 nM. {Biotin-AEEA}-C[PEG8′]YPYFIP[dK]G[dK]GEVN[Sta]VAE[dP]-NH2 (also: TFA salt) [Biotin-PEG2-Cys-PEG8-Tyr-Pro-Tyr-Phe-Ile-Pro-DLys-Gly-DLys-Gly-Glu-Val-Asn-Sta-Val-Ala-Glu-DPro-NH2]: the “IC 50, cellular Aβ-lowering assay” value was 18 nM. [dK]PYFIPLG[dK]GEVN[Sta]VAE[dP]-NH2 (also: TFA salt (3 TFA)) [DLys-Pro-Tyr-Phe-Ile-Pro-Leu-Gly-DLys-Gly-Glu-Val-Asn-Sta-Val-Ala-Glu-DPro-NH2 × 3TFA]: the “IC 50, cellular Aβ-lowering assay” value turned out to be 2930 nM. As to YPYFIPLG[dK]GEVN[Sta]VAE[dP]-NH2 (also: 2TFA salt) [Tyr-Pro-Tyr-Phe-Ile-Pro-Leu-Gly-DLys-Gly-Glu-Val-Asn-Sta-Val-Ala-Glu-DPro-NH2 × 2TFA], the “IC 50, cellular Aβ-lowering assay” value stood at 94 nM. With YPKFIPLG[dK]GEVN[MetSta(3S,4S)]VAEP-NH2 (also: TFA salt (3 TFA)) [Tyr-Pro-Lys-Phe-Ile-Pro-Leu-Gly-DLys-Gly-Glu-Val-Asn-MetSta-Val-Ala-Glu-Pro-NH2 × 3TFA], the “IC 50, cellular Aβ-lowering assay” value worked out at 760 nM. Next, YPYFIPLGGGEVN[Sta]VAE[dP]-NH2 (also: TFA salt) [Tyr-Pro-Tyr-Phe-Ile-Pro-Leu-Gly-Gly-Gly-Glu-Val-Asn-Sta-Val-Ala-Glu-DPro-NH2 × TFA]: 420 nM; {Biotin-AEEA}-C[PEG3]YPYFIP[dK]G[dK]GEVN[Sta]VAE[dP]-NH2 (also: TFA salt) [Biotin-PEG2-Cys-PEG3-Tyr-Pro-Tyr-Phe-Ile-Pro-DLys-Gly-DLys-Gly-Glu-Val-Asn-Sta-Val-Ala-Glu-DPro-NH2]: 26 nM; YPYFIPL[PEG4]EVN[MetSta(3S,4S)]VAEP-NH2 (also: TFA salt) [Tyr-Pro-Tyr-Phe-Ile-Pro-Leu-PEG(4)-Glu-Val-Asn-MetSta-Val-Ala-Glu-Pro-NH2 × TFA]: 17 nM. Next, YPYFIP[dK]G[dK]GEVN[MetSta(3S,4S)]VAEP-NH2 (also: TFA salt (3 TFA)) [Tyr-Pro-Tyr-Phe-Ile-Pro-DLys-Gly-DLys-Gly-Glu-Val-Asn-MetSta-Val-Ala-Glu-Pro-NH2 × 3TFA]: 15 nM; YPYFIP[dK]G[dK]GEVN[MetSta(3S,4S)]VAE[dF]-NH2 (also: TFA salt (3 TFA)) [Tyr-Pro-Tyr-Phe-Ile-Pro-DLys-Gly-DLys-Gly-Glu-Val-Asn-MetSta-Val-Ala-Glu-DPhe-NH2 × 3TFA]: 190 nM. For H-[dY]PYFIPLG[dK]GEVN[Sta]VAE[dP]-NH2 (also: TFA salt (2 TFA)) [H-DTyr-Pro-Tyr-Phe-Ile-Pro-Leu-Gly-DLys-Gly-Glu-Val-Asn-Sta-Val-Ala-Glu-DPro-NH2 × 2TFA], the “IC 50, cellular Aβ-lowering assay” value is 810 nM. For H-Y[dK]YFIPLG[dK]GEVN[Sta]VAE[dP]-NH2 (also: TFA salt) [H-Tyr-DLys-Tyr-Phe-Ile-Pro-Leu-Gly-DLys-Gly-Glu-Val-Asn-Sta-Val-Ala-Glu-DPro-NH2], the “IC 50, cellular Aβ-lowering assay” value was greater than 40000 nM.

With YPKFISAG[dK]GEVN[Sta]VAE[dP]-NH2 (also: 3TFA salt) [YPKFISA-GkG-EVN-Sta-VAEp-NH2 × 3TFA], the “IC 50, cellular Aβ-lowering assay” value amounted to 750 nM.

Turning to YPYFIPLGGGEVN[MetSta]VAEP-NH2 (also: TFA salt) [Tyr-Pro-Tyr-Phe-Ile-Pro-Leu-Gly-Gly-Gly-Glu-Val-Asn-MetSta-Val-Ala-Glu-Pro-NH2 × TFA], the “IC 50, cellular Aβ-lowering assay” value stood at 1340 nM.

With YPKFIPLG[dK]GEVN[Sta]VAE[dP]-NH2 (also: TFA salt (3 TFA)) [Tyr-Pro-Lys-Phe-Ile-Pro-Leu-Gly-DLys-Gly-Glu-Val-Asn-Sta-Val-Ala-Glu-DPro-NH2 × 3TFA], the “IC 50, cellular Aβ-lowering assay” value came to 280 nM.

On to H-YPYF[dK]L[PEG4]EVN[Sta]VAE[dP]-NH2 (also: TFA salt) [H-Tyr-Pro-Tyr-Phe-DLys-Leu-PEG(4)-Glu-Val-Asn-Sta-Val-Ala-Glu-DPro-NH2 × 3TFA], for which the “IC 50, cellular Aβ-lowering assay” value was greater than 40000 nM. Take YPYFKPAG[dK]GEVN[Sta]VAE[dP]-NH2 (also: 3TFA salt) [Tyr-Pro-Tyr-Phe-Lys-Pro-Ala-Gly-DLys-Gly-Glu-Val-Asn-Sta-Val-Ala-Glu-DPro-NH2 × 3TFA]: the “IC 50, cellular Aβ-lowering assay” value is 71 nM and 46 nM. YPYFIP[dK]G[dK]GEVN[Sta]VAE[dP]-NH2 (also: TFA salt (3 TFA)) [Tyr-Pro-Tyr-Phe-Ile-Pro-DLys-Gly-DLys-Gly-Glu-Val-Asn-Sta-Val-Ala-Glu-DPro-NH2 × 3TFA]: the “IC 50, cellular Aβ-lowering assay” value was 19 nM.

In the case of YPYF[dK]PLG[dK]GEVN[Sta]VAE[dP]-NH2 (also: TFA salt (3 TFA)) [Tyr-Pro-Tyr-Phe-DLys-Pro-Leu-Gly-DLys-Gly-Glu-Val-Asn-Sta-Val-Ala-Glu-DPro-NH2 × 3TFA], the “IC 50, cellular Aβ-lowering assay” value is greater than 40000 nM.

For YPYFIPLG[dK]GEVN[MetSta(3S,4S)]VAEP-NH2 (also: 2TFA salt) [Tyr-Pro-Tyr-Phe-Ile-Pro-Leu-Gly-DLys-Gly-Glu-Val-Asn-MetSta-Val-Ala-Glu-Pro-NH2 × 2TFA], the “IC 50, cellular Aβ-lowering assay” value came out at 470 nM. TPKPAQGG[dK]GEVN[Sta]VAE[dP]-NH2 (also: TFA salt (3 TFA)) [TPKPAQG-GkG-EVN-Sta-VAEp-NH2 × 3TFA]: the “IC 50, cellular Aβ-lowering assay” value is greater than 40000 nM.
